Test results from patent US20240076392A1, “ANTI-CD123 BINDING MOLECULES AND USES THEREOF” (IGM Biosciences, Inc., priority 2021, published 2024).
Positions count from the first letter of the chain named.

T1: recombinant human CD123 protein (CD123)-His (Homo sapiens, UniProt P26951)
T1 construct: purchased Acrobio (Acro Biosystems) ILA-H52H6
T1 sequence (P26951 19-378): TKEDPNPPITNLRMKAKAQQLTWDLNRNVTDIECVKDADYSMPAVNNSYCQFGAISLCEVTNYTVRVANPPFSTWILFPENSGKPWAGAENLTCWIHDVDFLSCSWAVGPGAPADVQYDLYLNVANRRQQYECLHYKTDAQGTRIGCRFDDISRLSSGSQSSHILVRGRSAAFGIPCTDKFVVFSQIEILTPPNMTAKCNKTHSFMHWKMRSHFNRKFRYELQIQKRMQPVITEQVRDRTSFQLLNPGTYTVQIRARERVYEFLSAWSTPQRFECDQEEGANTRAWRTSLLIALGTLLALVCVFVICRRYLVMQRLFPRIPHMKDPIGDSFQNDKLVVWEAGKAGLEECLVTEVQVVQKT

T2: human CD123 on CHO cells (Homo sapiens, UniProt P26951)
T2 construct: expressed in transfected cells; host or cells: CHO cells
T2 sequence (P26951 19-378): T1 sequence (P26951 19-378)

B1: h32716-3-1 IgG: humanized 32716 anti-CD123 IgG, VH SEQ ID NO: 78, VL SEQ ID NO: 79 (antibody, V domains shown)
VH: QVQLVQSGAEVKKPGSSVKVSCKASGYIFTNYGMNWVKQAPGQGFKWMGWINTYTGESTYSADFKGRFTFTLDESTSTAYMELSSLRSEDTAVYYCARSGGYDPMDYWGQGTLVTVSS
VL: DIVMTQSPDSLAVSLGERATINCRASESVDNYGNTFMHWYQQKPGQPPKLLIYRASNLESGVPDRFSGSGSGTDFTLTISSLQAEDVAVYYCQQSNEDPPTFGQGTRLEIK
B2: h32716-2-1 IgG: humanized 32716 anti-CD123 IgG, VH SEQ ID NO: 77, VL SEQ ID NO: 79 (antibody, V domains shown)
VH: B1 VH with F45L, K46E
VL: B1 VL
B3: h32716-1-1 IgG: humanized 32716 anti-CD123 IgG, VH SEQ ID NO: 76, VL SEQ ID NO: 79 (antibody, V domains shown)
VH: B1 VH with K38R, F45L, K46E, F68V, F70I, L72A
VL: B1 VL
B4: h32716-4-2 IgG: humanized 32716 anti-CD123 IgG, VH SEQ ID NO: 80, VL SEQ ID NO: 83 (antibody, V domains shown)
VH: QVQLVQSGPELKKPGASVKVSCKASGYIFTNYGMNWVRQAPGQGLEWMGWINTYTGESTYSADFKGRFVFSLDTSVSTAYLQISSLKAEDTAVYYCARSGGYDPMDYWGQGTLVTVSS
VL: DIQMTQSPSSLSASVGDRVTITCRASESVDNYGNTFMHWYQQKPGKAPKLLIYRASNLESGVPSRFSGSGSGTDFTFTISSLQPEDIATYYCQQSNEDPPTFGQGTKVEIK
B5: h32716-5-2 IgG: humanized 32716 anti-CD123 IgG, VH SEQ ID NO: 81, VL SEQ ID NO: 83 (antibody, V domains shown)
VH: B4 VH with R38K
VL: B4 VL
B6: h32716-6-2 IgG: humanized 32716 anti-CD123 IgG, VH SEQ ID NO: 82, VL SEQ ID NO: 83 (antibody, V domains shown)
VH: B4 VH with R38K, L45F, E46K
VL: B4 VL
B7: 32716 IgG: parental (mouse) anti-CD123 antibody 32716 VH/VL (SEQ ID NO: 74/75) cloned into human IgG format (antibody, V domains shown)
VH: QIQLVQSGPELKKPGETVKISCKASGYIFTNYGMNWVKQAPGKSFKWMGWINTYTGESTYSADFKGRFAFSLETSASTAYLHINDLKNEDTATYFCARSGGYDPMDYWGQGTSVTVSS
VL: DIVLTQSPASLAVSLGQRATISCRASESVDNYGNTFMHWYQQKPGQPPKLLIYRASNLESGIPARFSGSGSRTDFTLTINPVEADDVATYYCQQSNEDPPTFGAGTKLELK
modifications: human IgG constant regions

The molecules below were run against T1, recombinant human CD123 protein (CD123)-His (assay: Biolayer interferometry (Octet) affinity measurement of IgG antibodies). Settings: IgG format.
Assay type: binding
Procedure: The binding affinities of parental 32716 IgG and humanized variants with recombinant human CD123 protein (CD123)-His Acrobio #ILA-H52H6) were determined by BLI on an Octet-384 (Sartorius/Fortebio, NY, USA) using Anti-penta His biosensors (Sartorius). PBST (1×PBS+1% BSA+0.05% Tween-20) buffer was used as Antibody/CD123 dilution and sensor hydration buffer. The experiment followed a five-step sequential assay at 24° C. First, biosensors were hydrated for 10 minutes. Samples and buffer were applied in 384-well plate. After initial baseline for 60 s, sensors were loaded with 7 nM hu IL-3R alpha (CD123)-His Acrobio #ILA-H52H6. The biosensors were dipped into PBST for 20 s to reach baseline, then incubated for 420 s with 2-fold serial diluted anti-CD123 antibodies starting at 10 nM for association, followed by 900 s in PBST for dissociation. Results were analyzed by ForteBio Data Analysis software 9.0 using 1:1 global fit model.

In the case of B1, the “affinity compared to the original murine IgG antibody” value is reported as “slightly better affinity”.

Each molecule was assayed against T2, human CD123 on CHO cells (assay: Flow cytometry binding of IgG antibodies to CD123 expressing CHO cells). Settings: 4-parameter logistic model.
Procedure: To assess the ability of IgG antibodies to bind CD123 on CHO cells expressing the human CD123, a binding assay was performed. CHO cells expressing human CD123 were detached from flask using trypsin. Cells (1×105) were pipetted into wells in a round bottom 96 well plate, washed with FACS Stain Buffer (BD Pharmigen Catalog #554656) and pre-incubated with Fc Block (BD, #564220) for 10 minutes at room temperature followed by incubation at 4° C. with serial dilutions of 32716 or h32716 IgG antibodies for 30 minutes. Cells were washed twice and stained with a mouse anti human kappa antibody conjugated with Alexa647 (Southern Biotech, clone SB81a). Cells were analyzed by flow cytometry. Mean fluorescence intensity (MFI) values were analyzed with GraphPad Prism using a 4-parameter logistic model. All humanized IgG antibodies of 32716 anti-CD123 bound with similar affinities and intensities.

Going from B1 to B2, the HillSlope falls from 1.9 to 1.7.

Compared with B3, B4 is higher in HillSlope: 2.0 for the first, 2.4 for the second.

Compared with B5, B6 is lower in HillSlope: 2.2 for the first, 1.9 for the second.

B7 was tested, and the HillSlope was 2.2.

Same assay, conditions: flow cytometry, 4-parameter logistic model

Going from B1 to B2, the “Max binding intensity (MFI)” value falls from 940000 MFI to 930000 MFI.

First: B3
Second: B4
The “Max binding intensity (MFI)” value of the first is lower: 950000 MFI for the first, 980000 MFI for the second.

Compared with B5, B6 is lower in “Max binding intensity (MFI)” value: 1100000 MFI for the first, 1000000 MFI for the second.

With B7 the “Max binding intensity (MFI)” value was 910000 MFI.
